Tested on: Escherichia coli TOP10
Experiment: shrunken log2 fold change of peptide-encoding DNA abundance (4.5 h post-induction vs induction); higher = less antimicrobial activity (less host growth inhibition)
Details: time post-induction: 4.5 h; library: site-saturation at positions 5, 18, 19, 20
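Further: peptides expressed intracellularly from a pBAD plasmid library in pooled LB shake-flask culture, induced with 0.3% L-arabinose, DNA abundance read by NGS, three biological replicates, DESeq2 with apeglm shrinkage.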

## RRIRNRPPRLPRPRPRPGWVPRP
  shrunken log2 fold change: 0.282

## RRIRMRPPRLPRPRPRPMIEPRP
  shrunken log2 fold change: 0.17

## RRIRPRPPRLPRPRPRPEGHPRP
  shrunken log2 fold change: -0.16

## RRIRARPPRLPRPRPRPQGYPRP
  shrunken log2 fold change: 0.119

## RRIRGRPPRLPRPRPRPRNAPRP
  shrunken log2 fold change: 0.619

## RRIRHRPPRLPRPRPRPFALPRP
  shrunken log2 fold change: 0.051

## RRIRTRPPRLPRPRPRPERQPRP
  shrunken log2 fold change: -0.0252

## RRIRNRPPRLPRPRPRPFDPPRP
  shrunken log2 fold change: -0.805

## RRIRVRPPRLPRPRPRPFSFPRP
  shrunken log2 fold change: 1.26

## RRIRDRPPRLPRPRPRPPEHPRP
  shrunken log2 fold change: -0.0245

## RRIRNRPPRLPRPRPRPTWRPRP
  shrunken log2 fold change: 0.421

## RRIRRRPPRLPRPRPRPEMSPRP
  shrunken log2 fold change: 0.0923

## RRIRIRPPRLPRPRPRPVANPRP
  shrunken log2 fold change: -0.109

## RRIRGRPPRLPRPRPRPMFVPRP
  shrunken log2 fold change: 0.39

## RRIRVRPPRLPRPRPRPFGPPRP
  shrunken log2 fold change: -0.543

## RRIRQRPPRLPRPRPRPESVPRP
  shrunken log2 fold change: 0.00473

## RRIRTRPPRLPRPRPRPNTLPRP
  shrunken log2 fold change: -0.377

## RRIRWRPPRLPRPRPRPHTHPRP
  shrunken log2 fold change: -0.268

## RRIRGRPPRLPRPRPRPNWGPRP
  shrunken log2 fold change: 0.44

## RRIRERPPRLPRPRPRPDFTPRP
  shrunken log2 fold change: -0.233

## RRIRERPPRLPRPRPRPHFGPRP
  shrunken log2 fold change: -0.0492

## RRIRIRPPRLPRPRPRPEGIPRP
  shrunken log2 fold change: -0.0831

## RRIRVRPPRLPRPRPRPAQQPRP
  shrunken log2 fold change: 0.375

## RRIRLRPPRLPRPRPRPTYLPRP
  shrunken log2 fold change: -0.0138

## RRIRSRPPRLPRPRPRPIWCPRP
  shrunken log2 fold change: -0.288

## RRIRTRPPRLPRPRPRPCPWPRP
  shrunken log2 fold change: -0.21

## RRIRHRPPRLPRPRPRPDIMPRP
  shrunken log2 fold change: -0.261

## RRIRNRPPRLPRPRPRPLMPPRP
  shrunken log2 fold change: -0.173

## RRIRWRPPRLPRPRPRPHQYPRP
  shrunken log2 fold change: -0.29

## RRIRERPPRLPRPRPRPKGYPRP
  shrunken log2 fold change: 0.016

## RRIRYRPPRLPRPRPRPQVPPRP
  shrunken log2 fold change: -0.124

## RRIRMRPPRLPRPRPRPPTCPRP
  shrunken log2 fold change: 0.183

## RRIRPRPPRLPRPRPRPTYPPRP
  shrunken log2 fold change: -0.137

## RRIRDRPPRLPRPRPRPNTFPRP
  shrunken log2 fold change: -0.0294

## RRIRDRPPRLPRPRPRPAYHPRP
  shrunken log2 fold change: -0.263

## RRIRVRPPRLPRPRPRPYTLPRP
  shrunken log2 fold change: -0.666

## RRIRRRPPRLPRPRPRPHVKPRP
  shrunken log2 fold change: -0.32

## RRIRIRPPRLPRPRPRPHFPPRP
  shrunken log2 fold change: 0.00276

## RRIRQRPPRLPRPRPRPAIPPRP
  shrunken log2 fold change: 0.0602

## RRIRWRPPRLPRPRPRPFDDPRP
  shrunken log2 fold change: -0.121

## RRIRSRPPRLPRPRPRPEGRPRP
  shrunken log2 fold change: -0.0898

## RRIRPRPPRLPRPRPRPNCAPRP
  shrunken log2 fold change: 0.208

## RRIRYRPPRLPRPRPRPGLHPRP
  shrunken log2 fold change: -0.265

## RRIRERPPRLPRPRPRPRITPRP
  shrunken log2 fold change: -0.578

## RRIRVRPPRLPRPRPRPHEPPRP
  shrunken log2 fold change: -0.0412

## RRIRYRPPRLPRPRPRPHNTPRP
  shrunken log2 fold change: -1.28

## RRIRERPPRLPRPRPRPDWDPRP
  shrunken log2 fold change: -0.248

## RRIRRRPPRLPRPRPRPEVYPRP
  shrunken log2 fold change: 0.0769

## RRIRYRPPRLPRPRPRPVYRPRP
  shrunken log2 fold change: -0.158

## RRIRSRPPRLPRPRPRPKMRPRP
  shrunken log2 fold change: 0.269

## RRIRMRPPRLPRPRPRPKCIPRP
  shrunken log2 fold change: -0.113

## RRIRGRPPRLPRPRPRPSTLPRP
  shrunken log2 fold change: 0.152

## RRIRVRPPRLPRPRPRPMWEPRP
  shrunken log2 fold change: 0.0553

## RRIRARPPRLPRPRPRPSHPPRP
  shrunken log2 fold change: -0.0758

## RRIRYRPPRLPRPRPRPHDAPRP
  shrunken log2 fold change: -0.27

## RRIRQRPPRLPRPRPRPHWVPRP
  shrunken log2 fold change: 0.0288

## RRIRRRPPRLPRPRPRPPKDPRP
  shrunken log2 fold change: 0.472

## RRIRKRPPRLPRPRPRPNANPRP
  shrunken log2 fold change: 0.135

## RRIRERPPRLPRPRPRPNRNPRP
  shrunken log2 fold change: -1.09

## RRIRYRPPRLPRPRPRPIRNPRP
  shrunken log2 fold change: -1.17

## RRIRDRPPRLPRPRPRPGGYPRP
  shrunken log2 fold change: 0.101

## RRIRGRPPRLPRPRPRPKGDPRP
  shrunken log2 fold change: 0.0175

## RRIRRRPPRLPRPRPRPMTLPRP
  shrunken log2 fold change: -0.142

## RRIRPRPPRLPRPRPRPGFTPRP
  shrunken log2 fold change: -0.139

## RRIRKRPPRLPRPRPRPIECPRP
  shrunken log2 fold change: -0.0298

## RRIRQRPPRLPRPRPRPDLKPRP
  shrunken log2 fold change: -0.0178

## RRIRVRPPRLPRPRPRPKYNPRP
  shrunken log2 fold change: -0.658

## RRIRIRPPRLPRPRPRPNYRPRP
  shrunken log2 fold change: -0.00601

## RRIRNRPPRLPRPRPRPISTPRP
  shrunken log2 fold change: -0.507

## RRIRRRPPRLPRPRPRPMLQPRP
  shrunken log2 fold change: -0.274

## RRIRRRPPRLPRPRPRPNENPRP
  shrunken log2 fold change: 0.256

## RRIRYRPPRLPRPRPRPFCKPRP
  shrunken log2 fold change: -1.59

## RRIRYRPPRLPRPRPRPTSGPRP
  shrunken log2 fold change: 0.0452

## RRIRGRPPRLPRPRPRPYIWPRP
  shrunken log2 fold change: -0.107

## RRIRKRPPRLPRPRPRPWSSPRP
  shrunken log2 fold change: -0.136

## RRIRTRPPRLPRPRPRPISDPRP
  shrunken log2 fold change: -0.0355

## RRIRNRPPRLPRPRPRPDCYPRP
  shrunken log2 fold change: -0.871

## RRIRGRPPRLPRPRPRPQKLPRP
  shrunken log2 fold change: 0.13

## RRIRNRPPRLPRPRPRPDFAPRP
  shrunken log2 fold change: -0.0617

## RRIRFRPPRLPRPRPRPQWKPRP
  shrunken log2 fold change: -0.0239

## RRIRWRPPRLPRPRPRPMKCPRP
  shrunken log2 fold change: -0.0018

## RRIRKRPPRLPRPRPRPKSTPRP
  shrunken log2 fold change: 0.0348

## RRIRSRPPRLPRPRPRPVWHPRP
  shrunken log2 fold change: 0.182

## RRIRDRPPRLPRPRPRPGMYPRP
  shrunken log2 fold change: -0.00172

## RRIRARPPRLPRPRPRPSTCPRP
  shrunken log2 fold change: 0.0421

## RRIRLRPPRLPRPRPRPFHNPRP
  shrunken log2 fold change: -0.336

## RRIRLRPPRLPRPRPRPVDTPRP
  shrunken log2 fold change: -0.142

## RRIRQRPPRLPRPRPRPQLEPRP
  shrunken log2 fold change: 0.307

## RRIRTRPPRLPRPRPRPSFVPRP
  shrunken log2 fold change: -0.488

## RRIRPRPPRLPRPRPRPVLHPRP
  shrunken log2 fold change: -0.1

## RRIRTRPPRLPRPRPRPENCPRP
  shrunken log2 fold change: 0.072

## RRIRERPPRLPRPRPRPCGAPRP
  shrunken log2 fold change: 0.469

## RRIRLRPPRLPRPRPRPITNPRP
  shrunken log2 fold change: -0.391

## RRIRIRPPRLPRPRPRPTHDPRP
  shrunken log2 fold change: -0.0575

## RRIRARPPRLPRPRPRPLNMPRP
  shrunken log2 fold change: -0.502

## RRIRSRPPRLPRPRPRPLQHPRP
  shrunken log2 fold change: -0.00742

## RRIRSRPPRLPRPRPRPVFQPRP
  shrunken log2 fold change: -0.302

## RRIRRRPPRLPRPRPRPPQQPRP
  shrunken log2 fold change: 0.951

## RRIRKRPPRLPRPRPRPWMSPRP
  shrunken log2 fold change: -0.0718

## RRIRSRPPRLPRPRPRPEDRPRP
  shrunken log2 fold change: 0.972

## RRIRFRPPRLPRPRPRPWKMPRP
  shrunken log2 fold change: -0.211

## RRIRARPPRLPRPRPRPALLPRP
  shrunken log2 fold change: 0.718

## RRIRMRPPRLPRPRPRPIVNPRP
  shrunken log2 fold change: -0.0202

## RRIRPRPPRLPRPRPRPRAPPRP
  shrunken log2 fold change: 0.683

## RRIRDRPPRLPRPRPRPIMPPRP
  shrunken log2 fold change: -0.0491

## RRIRMRPPRLPRPRPRPIQQPRP
  shrunken log2 fold change: -0.0206

## RRIRPRPPRLPRPRPRPHVDPRP
  shrunken log2 fold change: -0.029

## RRIRNRPPRLPRPRPRPMCRPRP
  shrunken log2 fold change: -0.0579

## RRIRYRPPRLPRPRPRPGIRPRP
  shrunken log2 fold change: 0.0108

## RRIRKRPPRLPRPRPRPACHPRP
  shrunken log2 fold change: 0.211

## RRIRKRPPRLPRPRPRPQDHPRP
  shrunken log2 fold change: 0.103

## RRIRDRPPRLPRPRPRPINWPRP
  shrunken log2 fold change: -0.044

## RRIRTRPPRLPRPRPRPWCTPRP
  shrunken log2 fold change: -0.275

## RRIRNRPPRLPRPRPRPPAKPRP
  shrunken log2 fold change: 0.521

## RRIRQRPPRLPRPRPRPRWEPRP
  shrunken log2 fold change: 0.0653

## RRIRARPPRLPRPRPRPKHGPRP
  shrunken log2 fold change: 0.246

## RRIRCRPPRLPRPRPRPSMQPRP
  shrunken log2 fold change: -0.328

## RRIRKRPPRLPRPRPRPNEAPRP
  shrunken log2 fold change: -0.00686

## RRIRWRPPRLPRPRPRPVKGPRP
  shrunken log2 fold change: -0.0905

## RRIRVRPPRLPRPRPRPCTGPRP
  shrunken log2 fold change: -1.78

## RRIRTRPPRLPRPRPRPDQMPRP
  shrunken log2 fold change: 0.0643

## RRIRLRPPRLPRPRPRPATPPRP
  shrunken log2 fold change: 1.05

## RRIRQRPPRLPRPRPRPPTGPRP
  shrunken log2 fold change: 0.0124

## RRIRRRPPRLPRPRPRPVLVPRP
  shrunken log2 fold change: 0.487

## RRIRLRPPRLPRPRPRPQDEPRP
  shrunken log2 fold change: 0.119

## RRIRCRPPRLPRPRPRPVHQPRP
  shrunken log2 fold change: 0.11

## RRIRCRPPRLPRPRPRPDTIPRP
  shrunken log2 fold change: -0.738

## RRIRLRPPRLPRPRPRPMRYPRP
  shrunken log2 fold change: 0.0322

## RRIRMRPPRLPRPRPRPAFLPRP
  shrunken log2 fold change: 0.175

## RRIRKRPPRLPRPRPRPQVHPRP
  shrunken log2 fold change: -0.161

## RRIRTRPPRLPRPRPRPNAPPRP
  shrunken log2 fold change: -0.0472

## RRIRERPPRLPRPRPRPLSYPRP
  shrunken log2 fold change: -0.193

## RRIRHRPPRLPRPRPRPDFIPRP
  shrunken log2 fold change: -0.391

## RRIRDRPPRLPRPRPRPGSGPRP
  shrunken log2 fold change: 0.499

## RRIRLRPPRLPRPRPRPYNIPRP
  shrunken log2 fold change: -1.31

## RRIRKRPPRLPRPRPRPIHNPRP
  shrunken log2 fold change: -0.0348

## RRIRARPPRLPRPRPRPQMLPRP
  shrunken log2 fold change: 1.97

## RRIRMRPPRLPRPRPRPPKQPRP
  shrunken log2 fold change: 0.742

## RRIRTRPPRLPRPRPRPLNCPRP
  shrunken log2 fold change: -0.405

## RRIRNRPPRLPRPRPRPNNFPRP
  shrunken log2 fold change: -0.447

## RRIRCRPPRLPRPRPRPIGWPRP
  shrunken log2 fold change: -0.0817

## RRIRTRPPRLPRPRPRPVFGPRP
  shrunken log2 fold change: 0.227

## RRIRCRPPRLPRPRPRPIVWPRP
  shrunken log2 fold change: 0.102

## RRIRVRPPRLPRPRPRPVNVPRP
  shrunken log2 fold change: -0.411

## RRIRFRPPRLPRPRPRPRPDPRP
  shrunken log2 fold change: 0.282

## RRIRVRPPRLPRPRPRPKWKPRP
  shrunken log2 fold change: -0.0377

## RRIRVRPPRLPRPRPRPNFYPRP
  shrunken log2 fold change: -0.146

## RRIRRRPPRLPRPRPRPDSIPRP
  shrunken log2 fold change: -0.199

## RRIRARPPRLPRPRPRPDIYPRP
  shrunken log2 fold change: 0.115

## RRIRERPPRLPRPRPRPECAPRP
  shrunken log2 fold change: 0.586

Reference: the supplement of paper PMC9112550, “Optimization of the antimicrobial peptide Bac7 by deep mutational scanning” (BMC Biology, 2022)
